These results are taken from paper PMC7352323, “Regulation of Actin Filament Length by Muscle Isoforms of Tropomyosin and Cofilin” (International Journal of Molecular Sciences, 2020).

Settings in all cases: both partners purified
The target of experiment [1] is T1, F-actin initially saturated with Tpm1.1 (rabbit | human, UniProt P68135 1-377; P09493 1-284). Description: co-sedimentation; 0-10 µM cofilin-2 with 3 µM F-actin alone or initially saturated with 1 µM Tpm1.1 or Tpm3.12, 20 min at room temperature; 100 mM NaCl, 2 mM MgCl2, 1 mM DTT, pH 7.5; apparent Kapp from the Hill equation, K0 and ω from the McGhee and von Hippel linear lattice model.

For experiment [2], the target named is T2, F-actin (actin isolated from rabbit pectoral muscle, polymerised) (rabbit, UniProt P68135 1-377). The description is as above.
For experiment [3], the target named is T3, F-actin initially saturated with Tpm3.12 (rabbit | human, UniProt P68135 1-377; P06753 1-285). The description is as above.
In experiment [4] the target is T2, F-actin (actin isolated from rabbit …). Put plainly: co-sedimentation; dissociation of tropomyosin from the filament by cofilin-2: 3 µM F-actin, 1 µM Tpm1.1 or Tpm3.12, 0-10 µM cofilin-2; tropomyosin/actin densitometric ratio against cofilin-2/actin molar ratio, fit to a modified Hill equation; same gels as for cofilin-2 binding in the presence of tropomyosin.
The target of experiment [5] is T1, F-actin initially saturated with Tpm1.1. Put plainly: co-sedimentation; 0-10 µM cofilin-2 with 3 µM F-actin alone or initially saturated with 1 µM Tpm1.1 or Tpm3.12, 20 min at room temperature; 100 mM NaCl, 2 mM MgCl2, 1 mM DTT, pH 7.5; apparent Kapp from the Hill equation, K0 and ω from the McGhee and von Hippel linear lattice model. The source holds these as a separate data set.

Experiment [6] deals with T2, F-actin (actin isolated from rabbit …). Described as above. The source holds these as a separate data set.
In experiment [7] the target is T3, F-actin initially saturated with Tpm3.12. The description is as above. The source holds these as a separate data set.

B1: mouse cofilin-2, recombinant, GST tag removed (natural protein)
chain: MASGVTVNDEVIKVFNDMKVRKSSTQEEIKKRKKAVLFCLSDDKRQIIVEEAKQILVGDIGDTVEDPYTSFVKLLPLNDCRYALYDATYETKESKKEDLVFIFWAPESAPLKSKMIYASSKDAIKKKFTGIKHEWQVNGLDDIKDRSTLGEKLGGSVVVSLEGKPL
notes: cofilin-2 (muscle isoform of cofilin), mouse cDNA; MW 18,500 Da printed; The printed MW of 18,500 Da fits the whole protein
As for B1, the “stoichiometry N” value in experiment [1], in experiment [2] and in experiment [3] was about 1 cofilin-2 per actin each time. In experiment [4], the “cofilin-2/actin molar ratio at 50% dissociation of Tpm1.1 from F-actin” value is 0.75 cofilin-2/actin. The “cofilin-2/actin molar ratio at 50% dissociation of Tpm3.12 from F-actin” value in experiment [4] stood at 0.71 cofilin-2/actin. Besides, the “K0 (affinity for an isolated binding site, linear lattice model)” value in experiment [5] came out at 0.17 µM⁻¹; in experiment [6] it was 0.01 µM⁻¹; in experiment [7], 0.21 µM⁻¹. The Ka in experiment [5] turned out to be 6.3e+06 M⁻¹; in experiment [6], 5.7e+06 M⁻¹; in experiment [7], 5.8e+06 M⁻¹. Also, the “ω (cooperativity coefficient, linear lattice model)” value in experiment [5] stood at 12; in experiment [6] it was 50; in experiment [7], 10.
